Assay results published in patent US20230374132A1 (Innovent, published 2023).
Like-named read-outs stand apart in the source and are kept apart here.

What was measured:
[1] = molecular target: T1, human CD3 complex on Jurkat cells (human, UniProt P07766 23-207; P04234 22-171; P09693 23-182); assay: flow cytometry on Jurkat cells (human CD3 complex), method of Example 3.2
T1 construct: whole, on cells; natural CD3 complex of Jurkat T cells (also used here for CD3 on T cells of human PBMC); also called human CD3 at the cell level; CD3 on T cells
Method: (§1) Jurkat cells are immortalized human T lymphocytes, which express human CD3 complex. The cell line is used to detect the binding of the antibody to the cell. The detailed operation was as follows: Jurkat cells (Promega, J1621) was inoculated into U-shaped 96-well plate, 2×10⁵ for each well. The antibodies to be detected at a series of concentration gradients (the initial concentration of antibody molecule is 500 nM, 3 folds serial dilution) was added into the corresponding cell well, incubated at 4° C. for 30 minutes, and then PBS was used to wash out the unbound part. The sheep anti-human Fc PE fluorescent second antibody (Southern Biotech, J2815-5H87B) was added, then incubated at 4° C. for 15 minutes. and detected by flow cytometry ([…] BD). […] Some of these antibodies were selected to make a further binding curve at cell level.

[2] = molecular target: T2, human CD3 E&D complex protein (Sino Biological Inc., CT026H0323H) (human, UniProt P07766 23-126; P04234 22-105); assay: BLI, antibody on sensor
T2 construct: bought heterodimer; also called human CD3 protein (CT026H0323H)

[3] = molecular target: T3, human CD3E&G complex (Sino Biological Inc., CT041-H0305H) (human, UniProt P07766 23-126; P09693 23-116); assay: BLI, antibody on sensor
T3 construct: bought heterodimer; also called human CD3E&G antigen

[4] = molecular target: T1, human CD3 complex on Jurkat cells; assay: flow cytometry on Jurkat cells (human CD3 complex), 'Jurkat cell line binding', method of Example 3.2
Method: as §1

[5] = molecular target: T2, human CD3 E&D complex protein (Sino …); assay: BLI, antibody on sensor; remark: listed apart in the source
[6] = molecular target: T4, cynomolgus monkey CD3 E&D complex protein (Sino Biological Inc., CT032-00323H) (cynomolgus monkey, UniProt Q95LI5 22-117; Q95LI8 22-105); assay: BLI, antibody on sensor
T4 construct: bought heterodimer

[7] = molecular target: T1, human CD3 complex on Jurkat cells; assay: flow cytometry on Jurkat cells (human CD3 complex), 'Jurkat cell line binding', Example 3.2 [cont) D]
Method: as §1

T1 sequence (P07766 23-207, chain 1 of 3): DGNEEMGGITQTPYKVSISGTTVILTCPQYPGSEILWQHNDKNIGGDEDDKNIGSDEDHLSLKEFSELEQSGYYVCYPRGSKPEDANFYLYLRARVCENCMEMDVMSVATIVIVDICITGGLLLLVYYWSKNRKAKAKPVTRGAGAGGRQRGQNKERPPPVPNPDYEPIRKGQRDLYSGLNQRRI
T1 sequence (P04234 22-171, chain 2 of 3): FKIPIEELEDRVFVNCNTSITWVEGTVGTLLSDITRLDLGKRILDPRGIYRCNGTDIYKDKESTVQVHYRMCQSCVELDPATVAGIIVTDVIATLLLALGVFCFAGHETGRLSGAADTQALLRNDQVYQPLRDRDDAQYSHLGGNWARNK
T1 sequence (P09693 23-182, chain 3 of 3): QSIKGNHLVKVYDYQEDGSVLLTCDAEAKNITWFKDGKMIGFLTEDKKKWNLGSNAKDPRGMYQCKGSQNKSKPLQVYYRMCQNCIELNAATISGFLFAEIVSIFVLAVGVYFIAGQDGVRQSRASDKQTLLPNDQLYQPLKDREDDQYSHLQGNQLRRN
T4 sequence (Q95LI5 22-117, chain 1 of 2): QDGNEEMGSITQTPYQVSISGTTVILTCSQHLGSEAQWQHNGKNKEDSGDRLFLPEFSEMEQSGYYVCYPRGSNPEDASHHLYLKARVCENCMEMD
T4 sequence (Q95LI8 22-105, chain 2 of 2): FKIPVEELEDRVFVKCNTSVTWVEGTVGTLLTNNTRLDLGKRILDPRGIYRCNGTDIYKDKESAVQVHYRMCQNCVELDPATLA
T3 sequence (P07766 23-126, chain 1 of 2): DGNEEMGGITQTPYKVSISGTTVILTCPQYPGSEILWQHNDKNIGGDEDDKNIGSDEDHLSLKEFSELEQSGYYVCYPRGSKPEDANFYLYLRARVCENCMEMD
T3 sequence (P09693 23-116, chain 2 of 2): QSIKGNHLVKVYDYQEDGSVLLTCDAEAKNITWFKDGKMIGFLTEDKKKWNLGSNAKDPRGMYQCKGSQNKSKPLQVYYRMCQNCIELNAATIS
T2 sequence (P07766 23-126, chain 1 of 2): as the sequence (P07766 23-126, chain 1 of 2) above
T2 sequence (P04234 22-105, chain 2 of 2): as the sequence (Q95LI8 22-105, chain 2 of 2) above, with V5I, K15N, V20I, T32S, N33D, N34I, A64T, N74S, L83V counted along it

| binding result [2] | binding result [3] | EC50 (read off the curve) [4] [nM] | Kd [2] [nM] | koff [2] [s⁻¹] | kon [2] [M⁻¹ s⁻¹] | Kd [3] [nM] | koff [3] [s⁻¹] | kon [3] [M⁻¹ s⁻¹] | Kd [5] [nM] | koff [5] [s⁻¹] | kon [5] [M⁻¹ s⁻¹] | Kd [6] [nM] | koff [6] [s⁻¹] | kon [6] [M⁻¹ s⁻¹] | EC50 [7] [nM] | Binder | binding result [1] |
| --- | --- | --- | --- | --- | --- | --- | --- | --- | --- | --- | --- | --- | --- | --- | --- | --- | --- |
| no binding | no binding |  |  |  |  |  |  |  |  |  |  |  |  |  |  | hzsp34.95 (antibody, human IgG1, lambda, L234A L235A, V domains shown, CDR mutant of hzsp34.24; IgG1 L234A L235A, lambda) VH: EVQLVESGGGLVQPGGSLKLSCAASGFTFSGSAMNWVRQASGKGLEWVGRIRSKYNNYATYYADSVKDRFTISRDDSKSTLYLQMNSLKTEDTAVYYCARHGNFGQSYVSWFAYWGQGTTVTVSS VL: QAVVTQEPSLTVSPGGTVTLTCRSSTGAVTTSNYANWVQQKPGQAPRGLIGGTNKRAPGVPARFSGSLLGDKAALTLLGAQPEDEAEYYCALWYSNLWVFGQGTKLTVLG | no binding (tested: 900 (no unit printed on the sheet)) |
|  |  | ~2 | 5.62 | 0.00156 | 278000 | 11 | 0.00148 | 135000 |  |  |  |  |  |  |  | hzsp34.97 (antibody, human IgG1, lambda, L234A L235A, V domains shown, CDR mutant of hzsp34.24; IgG1 L234A L235A, lambda) VH: EVQLVESGGGLVQPGGSLKLSCAASGFTFNTYAMNWVRQASGKGLEWVGRIRSKAGGYATYYADSVKDRFTISRDDSKSTLYLQMNSLKTEDTAVYYCARHGNFGQSYVSWFAYWGQGTTVTVSS VL: QAVVTQEPSLTVSPGGTVTLTCRSSTGAVTTSNYANWVQQKPGQAPRGLIGGTNKRAPGVPARFSGSLLGDKAALTLLGAQPEDEAEYYCALWYSNLWVFGQGTKLTVLG |  |
| no binding | no binding |  |  |  |  |  |  |  |  |  |  |  |  |  |  | hzsp34.96 (antibody, human IgG1, lambda, L234A L235A, V domains shown, CDR mutant of hzsp34.24; IgG1 L234A L235A, lambda) VH: EVQLVESGGGLVQPGGSLKLSCAASGFTFNTYAMNWVRQASGKGLEWVGRISLKYNNYATYYADSVKDRFTISRDDSKSTLYLQMNSLKTEDTAVYYCARHGNFGQSYVSWFAYWGQGTTVTVSS VL: QAVVTQEPSLTVSPGGTVTLTCRSSTGAVTTSNYANWVQQKPGQAPRGLIGGTNKRAPGVPARFSGSLLGDKAALTLLGAQPEDEAEYYCALWYSNLWVFGQGTKLTVLG | no binding (tested: 900 (no unit printed on the sheet)) |
|  |  | ~4 | 4.11 | 0.000914 | 223000 | 16 | 0.00286 | 179000 |  |  |  |  |  |  |  | hzsp34.116 (antibody, human IgG1, lambda, L234A L235A, V domains shown, CDR mutant of hzsp34.24; IgG1 L234A L235A, lambda) VH: EVQLVESGGGLVQPGGSLKLSCAASGFTFNTYAMNWVRQASGKGLEWVGRIRSKYNNYATYYADSVKDRFTISRDDSKSTLYLQMNSLKTEDTAVYYCARHGNFGQSYVSWFAYWGQGTTVTVSS VL: QAVVTQEPSLTVSPGGTVTLTCRSSTGAVTTSNYANWVQQKPGQAPRGLIGGTNSRAPGVPARFSGSLLGDKAALTLLGAQPEDEAEYYCALWYSDLWVFGQGTKLTVLG |  |
|  |  | ~0.5 | 0.638 | 0.000157 | 246000 | 6.22 | 0.00149 | 240000 | 0.932 | 0.0019 | 2.04e+06 | 0.646 | 0.000795 | 1.23e+06 | 2 | sp34 (antibody, human IgG1, lambda, L234A L235A, V domains shown, mouse variable regions on human IgG1 L234A L235A and lambda constant regions; also called chimeric antibody sp34; mouse sp34) VH: EVQLVESGGGLVQPKGSLKLSCAASGFTFNTYAMNWVRQAPGKGLEWVARIRSKYNNYATYYADSVKDRFTISRDDSQSILYLQMNNLKTEDTAMYYCVRHGNFGNSYVSWFAYWGQGTLVTVSS VL: QAVVTQESALTTSPGETVTLTCRSSTGAVTTSNYANWVQEKPDHLFTGLIGGTNKRAPGVPARFSGSLIGDKAALTITGAQTEDEAIYFCALWYSNLWVFGGGTKLTVLG |  |
